Laboratory results taken from paper PMC2814896.

Experiments:
[1] = substrate: N=C(N)NCCCCN; assay: radiolabeled uptake in hOCT2-HEK293 vs wild-type HEK293 cells; type: cell-based, Homo sapiens
[2] = substrate: N=C(N)NCCCCN; assay: saturable uptake in hOCT1-HEK cells; type: cell-based, Homo sapiens

B1: OCT2 (hOCT2) (Homo sapiens) (protein)
chain: MPTTVDDVLEHGGEFHFFQKQMFFLLALLSATFAPIYVGIVFLGFTPDHRCRSPGVAELSLRCGWSPAEELNYTVPGPGPAGEASPRQCRRYEVDWNQSTFDCVDPLASLDTNRSRLPLGPCRDGWVYETPGSSIVTEFNLVCANSWMLDLFQSSVNVGFFIGSMSIGYIADRFGRKLCLLTTVLINAAAGVLMAISPTYTWMLIFRLIQGLVSKAGWLIGYILITEFVGRRYRRTVGIFYQVAYTVGLLVLAGVAYALPHWRWLQFTVSLPNFFFLLYYWCIPESPRWLISQNKNAEAMRIIKHIAKKNGKSLPASLQRLRLEEETGKKLNPSFLDLVRTPQIRKHTMILMYNWFTSSVLYQGLIMHMGLAGDNIYLDFFYSALVEFPAAFMIILTIDRIGRRYPWAASNMVAGAACLASVFIPGDLQWLKIIISCLGRMGITMAYEIVCLVNAELYPTFIRNLGVHICSSMCDIGGIITPFLVYRLTNIWLELPLMVFGVLGLVAGGLVLLLPETKGKALPETIEEAENMQRPRKNKEKMIYLQVQKLDIPLN
With B1 the Km [1] was 2 mM.

B2: OCT1 (hOCT1) (Homo sapiens) (protein)
chain: MPTVDDILEQVGESGWFQKQAFLILCLLSAAFAPICVGIVFLGFTPDHHCQSPGVAELSQRCGWSPAEELNYTVPGLGPAGEAFLGQCRRYEVDWNQSALSCVDPLASLATNRSHLPLGPCQDGWVYDTPGSSIVTEFNLVCADSWKLDLFQSCLNAGFLFGSLGVGYFADRFGRKLCLLGTVLVNAVSGVLMAFSPNYMSMLLFRLLQGLVSKGNWMAGYTLITEFVGSGSRRTVAIMYQMAFTVGLVALTGLAYALPHWRWLQLAVSLPTFLFLLYYWCVPESPRWLLSQKRNTEAIKIMDHIAQKNGKLPPADLKMLSLEEDVTEKLSPSFADLFRTPRLRKRTFILMYLWFTDSVLYQGLILHMGATSGNLYLDFLYSALVEIPGAFIALITIDRVGRIYPMAMSNLLAGAACLVMIFISPDLHWLNIIIMCVGRMGITIAIQMICLVNAELYPTFVRNLGVMVCSSLCDIGGIITPFIVFRLREVWQALPLILFAVLGLLAAGVTLLLPETKGVALPETMKDAENLGRKAKPKENTIYLKVQTSEPSGT
For B2, the Km [2] was 30 mM.
